Results: patent US20240018501A1, “HIGHER PERFORMANCE PROTEASES FOR SCARLESS PEPTIDE TAG REMOVAL” (priority 2017, published 2024)

Legend:
[1] = system: LicP; test: LicP self-cleavage and intermolecular cleavage (SDS-PAGE, MALDI-TOF MS); type: biochemical, Bacillus licheniformis ATCC 14580
Protocol: Expression and purification of LicP and LicP mutant proteins. E. coli BL21 (DE3) cells were transformed with one of the following plasmids: pRSFDuet-1/LicP-25-433, pRSFDuet-1/LicP-25-433-S376A, pRSFDuet-1/LicP-25-433-H186A, pRSFDuet-1/LicP-25-433-E100A or pRSFDuet-1/LicP-25-433-E100A-E102A, and plated on an LB plate containing 50 mg/L kanamycin. A single colony was picked and grown in 20 mL of LB containing 50 mg/L kanamycin at 37° C. for 12 h and the resulting culture was inoculated into 2 L of LB containing 50 mg/L kanamycin. Cells were cultured at 37° C. until the OD at 600 nm reached 0.5, cooled and IPTG was added to a final concentration of 0.1 mM. The cells were cultured at 18° C. for another 10 h before harvesting. The cell pellet was resuspended on ice in LanP buffer (20 mM HEPES, 1 M NaCl, pH 7.5 at 25° C.) and lysed by homogenization. The lysed sample was centrifuged at 23,700×g for 30 min and the pellet was discarded. […] Protein concentration was quantified by the absorbance at 280 nm. The extinction coefficient for His6-LicP-25-433 was calculated as 46,300 M^−1 cm^−1. […]
Intermolecular cleavage of His6-LicP-25-433-S376A by His6-LicP-25-433. […] The three reactions were allowed to proceed at room temperature for 0, 2, 4, 7 and 19 h before being stopped by addition of SDS loading buffer and boiling at 95° C. for 10 min and analyzed by SDS-PAGE.

[2] = target: NisA-NDVNPE-I1T, P13068
[3] = target: LicA2-D-5K
[4] = target: LicA2-D-5A
[5] = target: His6-LicP-25-433-S376A
[6] = target: DVNPE-Licβ
[7] = target: NisA-NDVNPE-I1G, P13068
[8] = target: NisA-NDVNPE, P13068
[9] = target: LicA2-N-3A
[10] = target: Linear LicA2
[11] = target: NisA-NDVNPE-I1K, P13068
[12] = target: NisA-NDVNPE-I1C, P13068
[13] = target: NisA-NDVNPE-I1L, P13068
[14] = target: LicA2-V-4L
[15] = target: LicA2-P-2A
[16] = target: LicA2-V-4F
[17] = target: LicA2-E-1D
[18] = target: LicA2-E-1Q
[19] = target: NisA-NDVNPE-I1E, P13068
[20] = target: MBP-BamL
[21] = target: NisA-NDVNPE-I1F, P13068
[22] = target: LicA2-V-4A
[23] = target: Modified LicA2
[24] = target: ProcA1.7-NDVNPE
[25] = target: LicA2-E-1A
[26] = target: linear G-LicA2
[27] = target: NisA-NDVNPE-I1W, P13068
[28] = Storage and freeze-thaw stability of the proteases; type: physicochemical

Chain of NisA-NDVNPE-I1K, P13068 (P13068 whole entry, looked up): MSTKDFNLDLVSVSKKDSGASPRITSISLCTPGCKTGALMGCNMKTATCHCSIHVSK
Chain of NisA-NDVNPE-I1E, P13068 (P13068 whole entry, looked up): as above
Chain of NisA-NDVNPE-I1G, P13068 (P13068 whole entry, looked up): as above
Chain of NisA-NDVNPE-I1L, P13068 (P13068 whole entry, looked up): as above
Chain of NisA-NDVNPE-I1C, P13068 (P13068 whole entry, looked up): as above
Chain of NisA-NDVNPE-I1T, P13068 (P13068 whole entry, looked up): as above
Chain of NisA-NDVNPE, P13068 (P13068 whole entry, looked up): as above
Chain of NisA-NDVNPE-I1W, P13068 (P13068 whole entry, looked up): as above
Chain of NisA-NDVNPE-I1F, P13068 (P13068 whole entry, looked up): as above

B1: His6-LicP-25-433 (protein)
chain: GSSHHHHHHSQDPKEQAGEQYLLLEHVKDKSKLLDTAEQFHIHADVIEEIGFAKVTGEKQKLAPFTKKLAEKVGADVIEKPIANTAVNETESVISGSPAWGLDGILELKEYLWFAAKQTDSYRTYQIERGHPDVKVALIDSGLDLDHPDLKASVNTNGGWNYIDGKPVSGDPTGHGTQTAGMINIIAPDVTITPYQVLDEKGGDSYNIMKAMVDAVNDGHEVINISTGSYTSLDREGKVLMKAYQRAANYAAKHQVLVFSSAGNKGVNLDEMRKTENKVHLPSALKHVVSVGSNMKSNNISPYSNQGREIEFTAPGGYLGETYDQDGMVRVTDLVLTTYPKGKDNTALDQMLNIPKGYSLSYGTSLAAPQVAGTAALVISEYRERHHRKPSAKQVHHILRKSALDLGKPGKDVIYGYGEVRAYQALKMMNKE
- LicP self-cleavage during expression [1]: a cleavage event occurred
- Complete Reaction? (LicP cleavage; [LicP] 0.2 µM, [Substrate] 65 µM, 20 h at RT) [2]: Y
- removal of the NisA leader peptide by LicP, MALDI-TOF MS [2]: The highest proteolytic efficiency was obtained when the P1′ position was occupied by Thr or Cys
- time-dependent cleavage by LicP, gel-based assay (100 µM peptide, 0.4 µM LicP) [3]: LicA2-D-5A and LicA2-D-5K are processed much more slowly
- time-dependent cleavage by LicP, gel-based assay (100 µM peptide, 0.4 µM LicP) [4]: LicA2-D-5A and LicA2-D-5K are processed much more slowly
- intermolecular cleavage of the S376A mutant by wild type LicP, SDS-PAGE, 1:1, 0.1 mg/mL each [5]: autoprotolysis can take place intermolecularly, albeit slowly
- cleavage by LicP, MALDI-TOF MS [6]: the 5-residue oligopeptide was successfully removed
- Complete Reaction? (LicP cleavage; [LicP] 2 µM, [Substrate] 65 µM, 30 h at RT) [7]: Y
- removal of the NisA leader peptide by LicP, MALDI-TOF MS [7]: in front of a Gly or Ile residue was slightly less efficient, but complete consumption of precursor peptides was still observed
- Complete Reaction? (LicP cleavage; [LicP] 2 µM, [Substrate] 65 µM, 30 h at RT) [8]: Y
- removal of the NisA leader peptide by LicP, MALDI-TOF MS [8]: in front of a Gly or Ile residue was slightly less efficient, but complete consumption of precursor peptides was still observed
- time-dependent cleavage by LicP, gel-based assay (100 µM peptide, 0.4 µM LicP) [9]: alanine substitution at both sites did not alter the processing efficiency of LicP significantly
- Complete Reaction? (LicP cleavage; [LicP] 1 µM, [Substrate] 290 µM, 6 h at RT) [10]: Y
- Complete Reaction? (LicP cleavage; [LicP] 2 µM, [Substrate] 65 µM, 30 h at RT) [11]: N
- removal of the NisA leader peptide by LicP, MALDI-TOF MS [11]: also accepted by LicP, although some substrate still remained after 30 hours of incubation
- Complete Reaction? (LicP cleavage; [LicP] 0.2 µM, [Substrate] 65 µM, 20 h at RT) [12]: Y
- removal of the NisA leader peptide by LicP, MALDI-TOF MS [12]: The highest proteolytic efficiency was obtained when the P1′ position was occupied by Thr or Cys
- Complete Reaction? (LicP cleavage; [LicP] 2 µM, [Substrate] 65 µM, 30 h at RT) [13]: N
- removal of the NisA leader peptide by LicP, MALDI-TOF MS [13]: also accepted by LicP, although some substrate still remained after 30 hours of incubation
- time-dependent cleavage by LicP, gel-based assay (100 µM peptide, 0.4 µM LicP) [14]: still accepted by LicP with a slightly reduced cleavage efficiency
- time-dependent cleavage by LicP, gel-based assay (100 µM peptide, 0.4 µM LicP) [15]: alanine substitution at both sites did not alter the processing efficiency of LicP significantly
- time-dependent cleavage by LicP, gel-based assay (100 µM peptide, 0.4 µM LicP) [16]: LicA2-V-4F was no longer processed
- time-dependent cleavage by LicP, gel-based assay (100 µM peptide, 0.4 µM LicP) [17]: even substitution with structurally related amino acids Asp and Gln was not tolerated
- time-dependent cleavage by LicP, gel-based assay (100 µM peptide, 0.4 µM LicP) [18]: even substitution with structurally related amino acids Asp and Gln was not tolerated
- Complete Reaction? (LicP cleavage; [LicP] 2 µM, [Substrate] 65 µM, 30 h at RT) [19]: N
- removal of the NisA leader peptide by LicP, MALDI-TOF MS [19]: Peptides with Glu or Phe in the P1′ position turned out to be poor substrates
- Complete Reaction? (LicP cleavage; [LicP] 0.5 µM, [Substrate] 50 µM, 12 h at 4 C) [20]: Y
- removal of the MBP tag, SDS-PAGE time course, against TEV protease [20]: LicP was capable of removing the MBP-tag in front of the BamL protein with similar efficiency as TEV
- Complete Reaction? (LicP cleavage; [LicP] 2 µM, [Substrate] 65 µM, 30 h at RT) [21]: N
- removal of the NisA leader peptide by LicP, MALDI-TOF MS [21]: Peptides with Glu or Phe in the P1′ position turned out to be poor substrates
- time-dependent cleavage by LicP, gel-based assay (100 µM peptide, 0.4 µM LicP) [22]: still accepted by LicP with a slightly reduced cleavage efficiency
- Complete Reaction? (LicP cleavage; [LicP] 21 nM, [Substrate] 17 µM, 10 min at RT) [23]: Y
- rate of cleavage in a competitive MALDI-TOF MS assay (21 nM LicP, 17 µM each of modified LicA2 and linear G-LicA2) [23]: complete consumption of modified LicA2 peptide within 10 min, corresponding to a rate of at least 80 min^-1
- Complete Reaction? (LicP cleavage; [LicP] 0.2 µM, [Substrate] 180 µM, 4 h at RT) [24]: Y
- time-dependent cleavage by LicP, gel-based assay (100 µM peptide, 0.4 µM LicP) [25]: LicA2-E-1A was not a substrate under the assay conditions
- competitive MALDI-TOF MS assay (21 nM LicP, 17 µM each of modified LicA2 and linear G-LicA2) [26]: the cleavage of linear LicA2 only started after the modified LicA2 had been consumed and required more enzyme to be completed
- Complete Reaction? (LicP cleavage; [LicP] 2 µM, [Substrate] 65 µM, 30 h at RT) [27]: N
- removal of the NisA leader peptide by LicP, MALDI-TOF MS [27]: also accepted by LicP, although some substrate still remained after 30 hours of incubation
- activity after multiple rounds of freeze-thaw [28]: no obvious decrease in activity
- activity after storage ([28]; 12 weeks at 4° C): persistent activity
